# Tests used:
# [1] = molecular target: Gαi1-V185F single mutant (human) (UniProt P63096)
# [2] = molecular target: Gαi1-V185F/H213Q double mutant (human) (UniProt P63096)
# [3] = molecular target: Gαi1-H213Q single mutant (human) (UniProt P63096)
# [4] = molecular target: Gαs-D229S single mutant (human) (UniProt P63092)
# [5] = molecular target: Gαs-F208V/D229S/Q236H triple mutant (human) (UniProt P63092)
substance,measurement,setting,value
RGS domain of human RGS16 (residue 86–205) (domain or fragment),EC50 of RGS16 GAP activity (dose response) towards Gαi1-V185F,[1],4 nM
same,EC50 of RGS16 GAP activity (dose response) towards Gαi1-V185F/H213Q,[2],45 nM
same,EC50 of RGS16 GAP activity (dose response) towards Gαi1-H213Q,[3],7 nM
same,EC50 of RGS16 GAP activity (dose response) towards Gαs-D229S,[4],800 nM
same,EC50 of RGS16 GAP activity (dose response) towards Gαs-F208V/D229S/Q236H,[5],9 nM

# From publication doi:10.1101/2024.07.27.605439
